Measured values: publication PMC10886158, “A New Phenolic Acid Decarboxylase from the Brown-Rot Fungus Neolentinus lepideus Natively Decarboxylates Biosourced Sinapic Acid into Canolol, a Bioactive Phenolic Compound” (Bioengineering, 2024)

Tests used:
[1] = target: native phenolic acid decarboxylase from Neolentinus lepideus strain BRFM15 (NlePAD) (Neolentinus lepideus (strain BRFM15)); test: SEC; purified native NlePAD on a Superdex 75 Prep Grade column in buffer A (20 mM sodium phosphate pH 7.5, 0.4 M saccharose, 2 mM DTT); calibrated with BSA, alpha-amylase, ovalbumin, casein and lysozyme; native mass 43-45 kDa compared with the 22 kDa band in SDS-PAGE
[2] = substrate: COc1cc(/C=C/C(=O)O)cc(OC)c1O; test: HPLC of canolol formed, Lineweaver-Burk plot; assay type: biochemical, Neolentinus lepideus; conditions: pH 6, 50 mM sodium phosphate, 37 °C, 0.5-10 mM substrate, 30 min, apparent KM
[3] = substrate: COc1cc(/C=C/C(=O)O)ccc1O; test: purified protein; conditions: pH 6, 50 mM sodium phosphate, 45 °C, 0.5-10 mM substrate, 30 min, apparent KM

| Molecule | stoichiometry N [1] | Km [2] [mM] | kcat/Km [2] [M⁻¹ s⁻¹] | Km [3] [mM] | kcat/Km [3] [M⁻¹ s⁻¹] |
| --- | --- | --- | --- | --- | --- |
| native phenolic acid decarboxylase from Neolentinus lepideus strain BRFM15 (NlePAD) (enzyme) | 2 | – | – | – | – |
| NlePAD (Neolentinus lepideus HHB14362 ss-1) (protein, homodimer 2 x 22 kDa (SEC 43-45 kDa)) MSHEGATSEEFKQIEGKRFKYTYGLGWTYEMYFRSLTRCVYRILSGPLAGRVNFQHAHYQKIRDNVWQCSWLEETGTVVSMVVDFDQQTVKTFATFSRGHWDLPDQAKGWKRNPEDMARWRTLAQKGKDQADKHVLVEHAKMSELTSGQGDLPDIDDSWETM | – | 3.9 | 1600 | 2.6 | 14800 |
